# Data from paper PMC8287583, “Biochemical and Phylogenetic Characterization of a Novel NADP^+-Specific Isocitrate Dehydrogenase From the Marine Microalga Phaeodactylum tricornutum” (Frontiers in Molecular Biosciences, 2021).
# Positions count from the first letter of the chain named. Numbers in names are those of the source.
# B1: PtIDH2 (Phaeodactylum tricornutum CCAP 1055/1) (protein)
# chain: PPTSNHRHQPLEHARGSILYTETDEAPALATFSLYPVISKFSALANVDIVPCDISVAGRVLAAFPECLKPSQRVPDNLSYLGKKALEADCAIVKLPNISAPLNQLLECVNELRHKGYDVPLYPHEPSNVEETDVKHRYDKLMGSAVNPVLREGNSDRRVAAPVKAYAQKNPHRMGLWSKASRTHVAHMETGDFYETEQSAVMALPTSVSIVLATKNEGEIVLKAETPLEEGEVVDASRMSVKSLRDFYEREMQDAKDSELMLSLHLKATMMKVSDPIMFGHAIRVFFQDAFDKHGEVLASIGANPNGGLGSVYETIKSKLPADQAATIQADFEACFEDRPWLAMVDSDKGITNLHAPNDIIIDASMPVVVRDSGKMWNKLGELEDVKCLIPDRCYATMYQEVLSYVKTKGQFDVATMGSVANVGLMAKKAEEYGSHDKTFEIPSDGRVVVKDNNTGEVYFEHVVNAGDVWRMCQTKDVAIRDWVRLAVERARATGDRTIFWLDKRRAHDASLIKKVNTYLKDHDTDGLDISIMRPVDAVRISMERATDGKNTISVTGNVLRDYLTDLFPILELGTSAKMLSIVPLLAGGGLYETGAGGSAPKHVQQFVKEGHLRWDSLGEYLALAVALEGLADTAGNPKAKILGDCLNKAVGRILTNRKSPSRVVNQIDNRATNFYVSLYWADFLQQEDPSYKAIFESLTENRGKIVEEFSQCQGTAVDLGGYYLFDPAKTKAAMNPSPTLNKILSSFGPDMN
# notes: mature form without putative signal and transit peptide (residues 1-58 of 811 removed), 753 residues, codon-optimized, 6xHis tag from pET-28b (NdeI/XhoI), E. coli Rosetta (DE3); ~80 kDa subunit (theoretical ~82 kDa), ~320 kDa homotetramer; N-term of insert after Met: FRSSTVL (from primer); C-term SSFGPDMN (from primers)
# B2: PtIDH2 (Phaeodactylum tricornutum CCAP 1055/1; H661L/R672D/R721S) (protein)
# chain: B1 chain with H603L, R614D, R663S
# notes: as for B1
# B3: PtIDH2 (Phaeodactylum tricornutum CCAP 1055/1; H661L/K660T/R672D/R721S) (protein)
# chain: B1 chain with K602T, H603L, R614D, R663S
# notes: as for B1
# B4: PtIDH2 (Phaeodactylum tricornutum CCAP 1055/1; H661L/R672D) (protein)
# chain: B1 chain with H603L, R614D
# notes: as for B1
# What was measured:
# [1] = target: PtIDH2 A718P mutant (Phaeodactylum tricornutum CCAP 1055/1); assay: SEC; mutant forms of PtIDH2, Superdex 200 (10/300), 0.5 ml/min; salt of the buffer not stated for this panel
# [2] = target: PtIDH2 L742F mutant (Phaeodactylum tricornutum CCAP 1055/1); assay: as above
# [3] = target: Phaeodactylum tricornutum NADP+-specific isocitrate dehydrogenase 2 (PtIDH2), mature form without the signal and transit peptide (Phaeodactylum tricornutum CCAP 1055/1); assay: SEC; Superdex 200 (10/300) Increase, 0.5 ml/min, 20 mM Tris-HCl, 10% glycerol, pH 7.5, 1,000 mM NaCl (high salt); sample incubated in that buffer before chromatography; tetramer to dimers
# [4] = target: Phaeodactylum tricornutum NADP+-specific isocitrate dehydrogenase 2 (PtIDH2), mature form without the signal and transit peptide (Phaeodactylum tricornutum CCAP 1055/1); assay: SEC-MALS; Superdex 200 (10/300) Increase, 0.5 ml/min, 20 mM Tris-HCl, 10% glycerol, 300 mM NaCl, pH 7.5
# [5] = target: Phaeodactylum tricornutum NADP+-specific isocitrate dehydrogenase 2 (PtIDH2), mature form without the signal and transit peptide (Phaeodactylum tricornutum CCAP 1055/1); assay: SEC; Superdex 200 (10/300) Increase, 0.5 ml/min, 20 mM Tris-HCl, 10% glycerol, pH 7.5, 300 mM NaCl (low salt); calibrated with five protein standards
# [6] = target: PtIDH2 V609L mutant (Phaeodactylum tricornutum CCAP 1055/1); assay: SEC; mutant forms of PtIDH2, Superdex 200 (10/300), 0.5 ml/min; salt of the buffer not stated for this panel
# purified protein [7] = substrate: NC(=O)c1ccc[n+]([C@@H]2O[C@H](COP(=O)(O)OP(=O)(O)OC[C@H]3O[C@@H](n4cnc5c(N)ncnc54)[C@H](OP(=O)(O)O)[C@@H]3O)[C@@H](O)[C@H]2O)c1; assay: purified protein; type: biochemical, Phaeodactylum tricornutum; conditions: 50 mM Tris-HCl pH 8.0, 25 °C
# purified protein [8] = substrate: O=C(O)CC(C(=O)O)C(O)C(=O)O; assay: purified protein; type: biochemical, Phaeodactylum tricornutum; conditions: Mn2+ 2.0 mM, 0.5 mM NADP+ fixed, 50 mM Tris-HCl pH 8.0, 25 °C, DL-isocitrate used
# purified protein [9] = substrate: NC(=O)c1ccc[n+]([C@@H]2O[C@H](COP(=O)(O)OP(=O)(O)OC[C@H]3O[C@@H](n4cnc5c(N)ncnc54)[C@H](O)[C@@H]3O)[C@@H](O)[C@H]2O)c1; assay: purified protein; type: biochemical, Phaeodactylum tricornutum; conditions: DL-isocitrate, 50 mM Tris-HCl pH 8.0, 25 °C, metal not given (wild-type is the Mn2+ value)
# [10] = Mn2+ 2.0 mM, 1.0 mM DL-isocitrate fixed
# [11] = DL-isocitrate, metal not given (wild-type is the Mn2+ value)
molecule,measurement,setting,value
PtIDH2 A718P mutant (enzyme),stoichiometry N,[1],4
PtIDH2 L742F mutant (enzyme),stoichiometry N,[2],4
"Phaeodactylum tricornutum NADP+-specific isocitrate dehydrogenase 2 (PtIDH2), mature form without the signal and transit peptide (enzyme)",stoichiometry N,[3],2
same,stoichiometry N,[4],4
same,stoichiometry N,[5],4
PtIDH2 V609L mutant (enzyme),stoichiometry N,[6],4
B1,Km,purified protein [7]; [10],37.37 ± 4.02 µM
same,kcat,purified protein [7]; [10],119 ± 11 s⁻¹
same,kcat/Km,purified protein [7]; [10],3.22e+06 M⁻¹ s⁻¹
same,Km,purified protein [8],42.69 ± 8.2 µM
B2,Km,purified protein [7]; [11],"2,704 ± 142.8 μM"
same,kcat,purified protein [7]; [11],1.01 ± 0.07 s⁻¹
same,kcat/Km,purified protein [7]; [11],400 M⁻¹ s⁻¹
same,Km,purified protein [9],"5,825 ± 307 μM"
same,kcat,purified protein [9],7.67 ± 1.04 s⁻¹
same,kcat/Km,purified protein [9],1300 M⁻¹ s⁻¹
B3,Km,purified protein [9],"11,479 ± 299 μM"
same,kcat,purified protein [9],2.25 ± 0.18 s⁻¹
same,kcat/Km,purified protein [9],200 M⁻¹ s⁻¹
B4,Km,purified protein [7]; [11],"47,650 ± 8,344 μM"
same,kcat,purified protein [7]; [11],22.1 ± 5.5 s⁻¹
same,kcat/Km,purified protein [7]; [11],500 M⁻¹ s⁻¹
same,Km,purified protein [9],"10,271 ± 1,448 μM"
same,kcat,purified protein [9],7.22 ± 0.6 s⁻¹
same,kcat/Km,purified protein [9],700 M⁻¹ s⁻¹
